To fix the notation:
B1: Protein RED1 (Saccharomyces cerevisiae), P14291 (parent)
chain: MEGLKKKIFGVCLKNDLAQTRNETKGIHYGLMTLETSKQLQEFLHLLVIKREVIQNFELLFHIINVAVKITDSNLPSDDIWHFILKLRFSSEINIDEDSKVLNYLLETGIAMENPVSWKCLAVISSILSSVPQSKKIITNLIETEHAKKIGQLFDNIQDLQQGNFLVEILSNCFKKSASNSKKVEKIPQLWQSRSKNKFFFENEFYPFSSKNGSLQTCQFLCNNFMSTLSFTGILRQVSYSGSETLKNLRIFKKKDDENSYFIQCIYNKIYLWLDEKAPLEFERKKIRITKNLKNKIQIKLRQPFHECVRTTADKTALLFNKTKGFQLEFEDEKLGETFFHNVNNIPKISEVQNFLVLDYIEEEPENEGEEEEQIGRADEQKEDEEEESLDELSTPMVYPIKSSIPHNHNEKVQLVTPDRSVSIRSDEWDLKSNTEDEEGNVLADLKISSTKETKRQTDYVHIDSEDQSPVVSAQMRKMRRESTKTLEILRQEFKDKDVQNKEDQSEQIQNPFVNTSSLVVGKSCLVNPKEKPNIDQTVVGITELKSNSSIKKRDINILDTIFGQPPSKKQKQFHKKEKKKQQKKLTNFKPIIDVPSQDKRNLRSNAPTKPKSIKVSKLRTDKKVTGEKSSPETAAEKVDDQTVRSNDEQAMSRATKEKCFPDVNEGKEITKDDAKVSLESKKNNETFVDSSVVEKHTPPDKDCNNCNITDILESTTVIDLQSPHGLSAPGQNTFTNKLQEQIYSSINHFSNELVRKISIINQELNKKILKELSEKYQKLFSELQDNFQNDTNEMLKFMGEIKDMMNLPEDQLVHAIRTRKFDNNKR
partner: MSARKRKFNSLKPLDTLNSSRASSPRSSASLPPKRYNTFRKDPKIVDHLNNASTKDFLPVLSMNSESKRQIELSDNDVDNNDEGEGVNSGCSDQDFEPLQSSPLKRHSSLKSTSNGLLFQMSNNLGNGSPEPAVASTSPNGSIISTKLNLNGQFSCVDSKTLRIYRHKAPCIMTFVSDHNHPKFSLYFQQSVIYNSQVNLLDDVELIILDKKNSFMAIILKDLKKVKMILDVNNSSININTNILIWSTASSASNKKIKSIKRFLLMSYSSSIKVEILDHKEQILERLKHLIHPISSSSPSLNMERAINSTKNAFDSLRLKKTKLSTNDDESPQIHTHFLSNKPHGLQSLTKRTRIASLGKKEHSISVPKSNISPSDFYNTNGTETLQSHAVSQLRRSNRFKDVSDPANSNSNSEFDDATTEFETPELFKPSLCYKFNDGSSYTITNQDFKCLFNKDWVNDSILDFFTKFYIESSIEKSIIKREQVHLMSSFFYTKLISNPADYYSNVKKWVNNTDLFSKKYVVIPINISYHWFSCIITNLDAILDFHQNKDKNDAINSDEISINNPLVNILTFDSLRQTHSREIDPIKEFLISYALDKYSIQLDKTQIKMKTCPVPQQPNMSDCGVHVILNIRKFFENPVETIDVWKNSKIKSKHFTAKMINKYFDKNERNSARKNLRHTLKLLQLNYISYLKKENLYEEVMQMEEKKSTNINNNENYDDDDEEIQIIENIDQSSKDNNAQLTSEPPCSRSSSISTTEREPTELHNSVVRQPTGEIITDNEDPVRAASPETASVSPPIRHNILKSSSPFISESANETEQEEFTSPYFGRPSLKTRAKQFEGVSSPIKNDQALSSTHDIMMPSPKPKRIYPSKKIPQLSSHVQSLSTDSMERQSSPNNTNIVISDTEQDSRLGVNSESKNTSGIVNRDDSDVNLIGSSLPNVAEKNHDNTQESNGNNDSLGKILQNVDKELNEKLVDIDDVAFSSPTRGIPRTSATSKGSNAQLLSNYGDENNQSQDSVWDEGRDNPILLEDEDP
B2: Protein RED1 (Saccharomyces cerevisiae), P14291 (parent)
chain: B1 chain
partner: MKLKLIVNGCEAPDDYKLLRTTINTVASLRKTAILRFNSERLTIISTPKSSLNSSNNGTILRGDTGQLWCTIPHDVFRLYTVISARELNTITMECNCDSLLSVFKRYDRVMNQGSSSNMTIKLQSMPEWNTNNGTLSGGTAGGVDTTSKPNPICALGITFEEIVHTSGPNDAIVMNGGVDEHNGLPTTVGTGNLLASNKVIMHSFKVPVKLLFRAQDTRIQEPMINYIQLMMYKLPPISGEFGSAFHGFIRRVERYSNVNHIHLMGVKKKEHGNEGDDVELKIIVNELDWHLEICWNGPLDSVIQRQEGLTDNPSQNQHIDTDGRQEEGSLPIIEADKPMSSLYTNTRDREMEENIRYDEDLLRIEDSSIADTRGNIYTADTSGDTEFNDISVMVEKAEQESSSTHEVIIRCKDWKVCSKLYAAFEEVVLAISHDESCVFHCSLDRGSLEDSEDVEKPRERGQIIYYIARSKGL
B3: Protein RED1 (Saccharomyces cerevisiae), P14291 (parent)
chain: B1 chain
B4: Protein RED1 (Saccharomyces cerevisiae), P14291 (parent)
chain: B1 chain
partner: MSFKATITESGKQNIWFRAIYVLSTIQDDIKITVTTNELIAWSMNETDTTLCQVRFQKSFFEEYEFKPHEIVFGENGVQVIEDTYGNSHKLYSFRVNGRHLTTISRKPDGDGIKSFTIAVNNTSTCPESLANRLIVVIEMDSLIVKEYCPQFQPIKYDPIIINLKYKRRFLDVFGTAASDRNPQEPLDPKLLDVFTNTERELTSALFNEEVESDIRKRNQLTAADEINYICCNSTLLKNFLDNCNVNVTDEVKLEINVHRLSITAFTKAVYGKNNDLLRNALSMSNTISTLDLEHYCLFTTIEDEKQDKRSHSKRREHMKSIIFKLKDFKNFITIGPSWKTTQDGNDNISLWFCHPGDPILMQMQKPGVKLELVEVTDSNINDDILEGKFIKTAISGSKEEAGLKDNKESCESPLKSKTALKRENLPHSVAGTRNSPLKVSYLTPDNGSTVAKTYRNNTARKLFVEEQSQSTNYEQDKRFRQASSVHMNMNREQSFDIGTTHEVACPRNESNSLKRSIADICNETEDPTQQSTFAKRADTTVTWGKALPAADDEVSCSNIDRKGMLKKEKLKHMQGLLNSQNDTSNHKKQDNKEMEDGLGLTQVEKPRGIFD
B5: Protein RED1 (Saccharomyces cerevisiae), P14291 (parent)
chain: B1 chain
partner: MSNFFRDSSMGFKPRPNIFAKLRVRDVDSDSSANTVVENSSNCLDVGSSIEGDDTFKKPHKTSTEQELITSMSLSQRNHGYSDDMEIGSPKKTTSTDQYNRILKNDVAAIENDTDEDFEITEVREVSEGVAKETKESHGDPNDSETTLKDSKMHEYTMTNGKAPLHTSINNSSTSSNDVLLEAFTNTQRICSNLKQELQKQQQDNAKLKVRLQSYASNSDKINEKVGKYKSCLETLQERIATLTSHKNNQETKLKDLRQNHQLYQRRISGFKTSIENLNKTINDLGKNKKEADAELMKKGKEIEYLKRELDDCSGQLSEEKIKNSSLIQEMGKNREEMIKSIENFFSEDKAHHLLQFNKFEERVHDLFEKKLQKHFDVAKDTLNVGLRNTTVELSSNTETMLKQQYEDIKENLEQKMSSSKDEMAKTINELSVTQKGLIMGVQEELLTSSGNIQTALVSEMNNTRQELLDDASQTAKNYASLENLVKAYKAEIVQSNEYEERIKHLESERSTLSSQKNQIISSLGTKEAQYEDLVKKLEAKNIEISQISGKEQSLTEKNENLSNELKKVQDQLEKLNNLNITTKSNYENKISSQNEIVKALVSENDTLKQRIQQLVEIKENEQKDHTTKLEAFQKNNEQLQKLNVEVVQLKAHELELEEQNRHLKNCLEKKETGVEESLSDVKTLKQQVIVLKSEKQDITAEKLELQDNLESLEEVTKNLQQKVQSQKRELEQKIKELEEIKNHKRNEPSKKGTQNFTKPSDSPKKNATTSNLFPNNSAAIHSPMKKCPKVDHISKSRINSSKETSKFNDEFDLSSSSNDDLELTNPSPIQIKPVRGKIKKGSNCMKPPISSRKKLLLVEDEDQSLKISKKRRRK

One experiment covers variants of B1. As to conditions: with ulp2_yeast ULP2, P40537.
Take K569R;K570R;K572R;K576R;K577R;K579R;K580R;K581R;K584R;K585R;K590R: the “effect of a mutation on the interaction” value is on record as “disrupting interaction strength”.

The variants in another experiment derive from B2. Particulars: with mec3_yeast MEC3, Q02574.
Consider Q537A;V540A, for which the “effect of a mutation on the interaction” value was “disrupting interaction strength”.

Variants of B3 are the subject of a further experiment. Particulars: with smt3_yeast SMT3, Q12306.
smt3_yeast SMT3, Q12306, sequence (Q12306 whole entry): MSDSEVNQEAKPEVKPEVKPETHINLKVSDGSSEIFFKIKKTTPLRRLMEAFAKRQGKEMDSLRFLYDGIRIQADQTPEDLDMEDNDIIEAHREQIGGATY
As for K569R;K570R;K572R;K576R;K577R, the “effect of a mutation on the interaction” value is recorded as “disrupting interaction strength”.

For K569R;K570R;K572R;K576R;K577R;K579R;K580R;K581R;K584R;K585R;K590R, the “effect of a mutation on the interaction” value is given as “disrupting interaction strength”.

The next experiment covers variants of B4. Particulars: with ddc1_yeast DDC1, Q08949.
Turning to I743A, the “effect of a mutation on the interaction” value is given as “disrupting interaction strength”.

Variants of B5 are the subject of the next experiment. As to conditions: with zip1_yeast ZIP1, P31111.
Regarding K569R;K570R;K572R;K576R;K577R;K579R;K580R;K581R;K584R;K585R;K590R, the “effect of a mutation on the interaction” value is reported as “disrupting interaction strength”.

These data come from IntAct's records for PubMed 20534433.
